From patent US20150359847A1, “METHOD AND COMPOSITION FOR CONFERRING NEUROPROTECTION” (BLOOD SYSTEMS RESEARCH INSTITUTE, priority 2014, published 2015)

Key:
[1] = test system: mouse model of controlled cortical impact (CCI); experiment: Morris Water Maze in CCI TBI mice; format: in vivo
Source text: The mouse controlled cortical impact (CCI) injury model was used as previously described. In brief, mice were anesthetized with 5% isoflurane and 1:1 O2:N2 mixture. Animals were mounted on a stereotaxic frame and were secured by ear bars and an incisor bar. Anesthesia was maintained with 2.0% isoflurane and 1:1 O2:N2 mixture. A 5-mm-diameter craniotomy was made midway between bregma and lambda on the right side, with the medial edge of the craniotomy 1 mm lateral to midline. Injury was produced using a magnetic impactor mounted at an angle of 110° from the vertical plane. A single impact at a velocity of 4+/−0.2 m/s was used inflict a moderate to severe injury (1.2-1.3 mm impact depth). After injury, the incision was closed. Sham animals underwent identical surgeries except for impact injury. Core body temperature was monitored using a rectal thermometer and maintained at 36.8° C.-37.2° C. with a heating pad throughout the procedure. For treatments, TIMP3 (60.0 μg/kg) or vehicle control (PBS) administration was performed at 2, 24, and 48 hrs after injury via tail vein injections in a total volume of 125 μl. Animal research was performed with approval of the Institutional Animal Care and Use Committee at ISIS Services LLC (San Carlos, Calif., USA). Mice received humane care according to the criteria outlined by the National Research Council's Institute of Laboratory Animal Resources in the “Guide for the Care and Use of Laboratory Animals”. Neurocognitive testing conducted at UT Houston was in compliance with University of Texas Houston Institutional Animal Care and Use Committee.
A modified Morris water maze task was used to assess long-term memory. Mice were trained to find the location of a hidden platform in one day. This was followed by probe at 30 mins following the last trial and another probe 24 hrs later. Mice were given 10 training trials with an inter-trial interval of 15 mins. Each trial was initiated by placing the animal into the water maze at one of four randomly chosen starting positions. The animal was allowed to search for the hidden platform for a period of 1 min, and the time to find the platform recorded. […] At thirty minutes and twenty-four hours following the final training trial, animals were tested in a probe trial in which the platform was removed from the tank and allowed to search for a period of 1 min. Movement within the maze was monitored using a video camera linked to […] software (Ethovision™, Noldus Information Technology, Leesbury, Va.). Measures of memory, including latency to first platform crossing, and number of crossings were recorded.

[2] = test system: mouse model of controlled cortical impact (CCI); experiment: Elevated Plus Maze in controlled cortical impact (CCI) TBI mice; format: in vivo
Source text: The mouse controlled cortical impact (CCI) injury model was used as previously described. In brief, mice were anesthetized with 5% isoflurane and 1:1 O2:N2 mixture. Animals were mounted on a stereotaxic frame and were secured by ear bars and an incisor bar. Anesthesia was maintained with 2.0% isoflurane and 1:1 O2:N2 mixture. A 5-mm-diameter craniotomy was made midway between bregma and lambda on the right side, with the medial edge of the craniotomy 1 mm lateral to midline. Injury was produced using a magnetic impactor mounted at an angle of 110° from the vertical plane. A single impact at a velocity of 4+/−0.2 m/s was used inflict a moderate to severe injury (1.2-1.3 mm impact depth). After injury, the incision was closed. Sham animals underwent identical surgeries except for impact injury. Core body temperature was monitored using a rectal thermometer and maintained at 36.8° C.-37.2° C. with a heating pad throughout the procedure. […] Animal research was performed with approval of the Institutional Animal Care and Use Committee at ISIS Services LLC (San Carlos, Calif., USA). […]
The elevated plus maze was used to assess anxiety behavior in mice. […] The frequency of entries into the open and closed arms was recorded with an overhead camera using tracking software (Ethovision, Noldus Information Technology, Leesbury, Va.).

hippocampal neurons = experiment: Neurite chamber assay (AXIS axon isolation device); format: cell-based, mouse; conditions: 7 days treatment with TIMP3
Experimental: For AXIS™ Axon Isolation devices, chambers were first sterilized from one side of the groves to the other under flow gradient with 70% ethanol to avoid trapping air in the groves. Afterwards the slides were completely immersed in 70% ethanol for 5 mins. Upon removing the slide from the ethanol bath, chambers were washed twice with PBS under a flow gradient to flush the chambers, the procedure was then repeated with Poly-D-Lysine. Chambers were then incubated with Poly-D-Lysine overnight at 4° C. Prior to plating cells, chambers were flushed with ‘plating media’ (see tissue culture section). Simultaneous plating of the single cell suspension in both wells on side of the groves enabled equilibrium to be obtained and a sufficient number of cell remained in the chamber adjacent to the groves. Hippocampi from 2 pups were used per chamber. Cells were allowed to attach for 4 hrs before excess cells in the wells were detached using the rubber tip from a sterile 1 ml syringe, plating media removed and ‘maintenance media’ with treatments were added. Flow gradients were maintained throughout the culture steps and media exchanges were performed with this in mind.

[3] = long-term probe, TBI+TIMP3 vs TBI alone

B1: TIMP3: Recombinant tissue inhibitor of matrix metalloproteinase-3, a soluble protein released by MSCs, obtained from Amgen Inc. (protein)
chain: CTCSPSHPQDAFCNSDIVIRAKVVGKKLVKEGPFGTLVYTIKQMKMYRGFTKMPHVQYIHTEASESLCGLKLEVNKYQYLLTGRVYDGKMYTGLCNFVERWDQLTLSQRKGLNYRYHLGCNCKIKSCYYLPCFVTSKNECLWTDMLSNFGYPGYQSKHYACIRQKGGYCSWYRGWAPPDKSIINATDP
ability to learn the platform location during training ([1]; TBI+TIMP3 vs TBI alone): did not significantly differ
total number of correct platform crossings (Morris Water Maze) ([1]; TIMP3 60 μg/kg IV x3, long-term memory probe 24 hrs after training, days 8-9): 1.9±0.4
latency to first platform crossing [1, 3]: did not significantly differ
time in the area around the platform (concentric rings) [1, 3]: spent more time in the area around the platform
frequency of entries into the closed arms (Elevated Plus Maze) ([2]; TBI+TIMP3 vs TBI alone, day 3): comparable frequency
frequency of entries into the open arms (Elevated Plus Maze) ([2]; TIMP3 60 μg/kg tail-vein at 1 hr, 24 hrs, 72 hrs post-TBI, EPM on day 3, vs TBI alone): 11±1.8
neurite outgrowth in neurite chamber (hippocampal neurons): increased neurite outgrowth
